Source: the nanobody polyreactivity screen of Harvey et al. (2022)

Assay: yeast display, Sf9 membrane polyspecificity reagent, FACS + sequencing; frameworks hold sequencing errors
Method in brief: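 Synthetic nanobody libraries on Saccharomyces cerevisiae BJ5465 were galactose-induced for 36–48 hours, stained 1 hour at 4 °C with 10% biotinylated, detergent-solubilized Sf9 membrane reagent and enriched on streptavidin microbeads. FACS then separated cells into low and high (top ~1%) gates by anti-HA (expression) and streptavidin (reagent binding) fluorescence. Genes were colony-PCR amplified, MiSeq 2 × 250 sequenced and CDR-length filtered. A clone's polyreactivity label is that of its gate of origin.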

Row | Sequence | polyreactivity (PSR sort gate)
1 | QVQLVESGGGLVQAGGSLRLSCAAYGFIFKFYAMGWYRQAPGKERELVAAITSGGGRTYYADSVKGRFPISRDNAKNTVYLQMNSLKAQDSAGYYCAVDYLQYYYKKHYYGGQGTQVTVSS | high polyreactivity
2 | QVQLVESGGGLVQAGGSLRLSCAAYGFTFIYYAMGRYRQAPGKERELVAAISRRGGSTYYADSVKGRFTISRDNAKNTVYLQMNSLKPEDTAVYYCAAYTLNTRYDYWGQGTQVTVSS | high polyreactivity
3 | QVQLVESGGGLVQAGGSLRLSCAAYGFTFSRKAMGWYRPAPGKERELVAAISIRGGSTYYADSVKGRFTISRDNAKITVYLQMNSLKPEDTAVYYCAALYRPTDYDYWGQGTQVTVSS | high polyreactivity
4 | QVQLVESGGGLVQAGGSLRLSCAAYGGIFSYNAKGWYSQAPGKEREFVASISSSGGRTYYADSVKGRFTISRDNAQNTVYLQMKSLKPEDTAVYYCAKRGQLRHYSWGQGTQVTVSS | low polyreactivity
5 | QVQLVESGGGLVQAGGSLRLSCAAYGGTFYYYAMGWYRQAPGKEREFVAAITWTGGRTYYADSVKGRFTISRDNAKNTVYLQMNSLKPEDTAVYYCAASDRYGGRDYWGQGTQVTVSS | high polyreactivity
6 | QVQLVESGGGLVQAGGSLRLSCAAYGITFKGNAMGWYRQAPGKERELVAAIRWRAGRTYYADSVKGRFTISRDNAKNTVYLQMNSLKPEDTAVYDCAATYSYLWPEYDYWGQGTQVTVSS | high polyreactivity
7 | QVQLVESGGGLVQAGGSLRLSCAAYGRIFGPYASGWYIQAPGKERELVAAITLSGGGTYADSVKGRFTISRDNAKNTVYLQMNSLKPEDTAVYYCAADSYRLLNSDTGEFEYNYWGQGSQVTVSS | low polyreactivity
8 | QVQLVESGGGLVQAGGSLRLSCAAYGRIFLPNSMGWYIQAPGKERELVAAITWSGGSTYYADSVKGRFTISRDNAKYTVFLQMTSLIPEDTAVYYGAGRGFSYRRRSQQFDYWGLGTQVTVSS | high polyreactivity
9 | QVQLVESGGGLVQAGGSLRLSCAAYGRIFNEYAKGWYRQAPGKERELVAAITYSDDSTYYADSVKGRFTISRDNAKNTVYLQLNSLKPEDTAVYYCNADTPVWDGHAYPVDYWGQGTQVTVSS | low polyreactivity
10 | QVQLVESGGGLVQAGGSLRLSCAAYGRIFRYYAMGWYRQAPGKERELVAGISWRGSSTYYADSVKGRFTLSRDNAKNTVYLQMNSLKPEDTAVYYCNRDQSNIPVTGVRFYYWGQGTQVTVSS | high polyreactivity
11 | QVQLVESGGGLVQAGGSLRLSCAAYGRIFSRYAMGWYRQAPGKERELVAAISSSGTTTYYADSVNGRFTISRDTAKNTVYLQMNSLKPEDTAVYSCATSAVRHIYWGQGTQVTVSS | high polyreactivity
12 | QVQLVESGGGLVQAGGSLRLSCAAYGRIFSSYAMGWYRQAPGKERELVAAISSSGGRTYYADSVKGRFTISRDNAKNTVYLQMNRLKPEDTAVYYFARVTTGGYEYWGQGSQVTVSS | high polyreactivity
13 | QVQLVESGGGLVQAGGSLRLSCAAYGRILSVYAMGWYRQAPGKERELVAAISSTGGTYYADSVKGRFTISRDNAKNTVYLQMNSLKPEDTADYYCAARYSTLTKYYWGQGTQVTVSS | low polyreactivity
14 | QVQLVESGGGLVQAGGSLRLSCAAYGRTFEINAMGWYRQATGKERELVAAISWDDGSTYYADSVKGRFTISRDNAKNTVYLQMNSLKPEDTAVYYCAAESPLHYTHRRGYEYWGQGTQVTVSS | low polyreactivity
15 | QVQLVESGGGLVQAGGSLRLSCAAYGRTFWSYAMGWYRQAPGKERELVADISLDDGTTYYADSVKGRFTISRDNAKNTVYLHMNSLKPEDTAVYYCAAERDQGDDGYGPDYGYWGQGTQVTVSS | high polyreactivity
16 | QVQLVESGGGLVQAGGSLRLSCAAYGRTIPIYAMGWYRQAPGKEREFVAGINWSGGSTSYADSVKGRFTISRDNAKNTVYLQMNSLKPEDTAVYYCDADKYYRYNYWGQGTQVTVSS | high polyreactivity
17 | QVQLVESGGGLVQAGGSLRLSCAAYGRTLRGYAMGWYRQAPGKERELVAALTWSGGSTYYADSVKGRFTISRDHAKNTVYLQMNSLKPEDTAVYYCNARSYPDLYDYWGQGTQVTVSS | low polyreactivity
18 | QVQLVESGGGLVQAGGSLRLSCAAYGRTLYYNTMGWYRQAPGKERELVASIRWDGGRTYYADSVKGRFTISRDNAKNTVYLQLNSLKPEDTAVYYCAKDGGYYYGTYAYDGCFDYWGQGTQVTVSS | low polyreactivity
19 | QVQLVESGGGLVQAGGSLRLSCAAYGSIFAYNAMGWYRQAPGKEREFVAVITRSDDSTYADSVTGRFTISRDNAKNTVYLQMNSLKPVDTAVYYCAAQPFVIDGGYRGDYWGQGTQVTVSS | low polyreactivity
20 | QVQLVESGGGLVQAGGSLRLSCAAYGSIFGSNAIGCYIQAPGKERELVAAISSGSTYYADTVKGRFTISRDNAKNTVYLQMNSLKPEDNAVYYCNARSLLYEFDYWGQGTQVTVSS | low polyreactivity
21 | QVQLVESGGGLVQAGGSLRLSCAAYGSIFRKYVMGWYRQAHGKERELVAVISSGTGTYYADSVKGRFTISRDNAKNTVYLQMNSLNPEDTAVYYCAARVGRYGYSQYYYWGHGTQVTVSS | high polyreactivity
22 | QVQLVESGGGLVQAGGSLRLSCAAYGSIFRWYAMGWYRQAPGKERELVAAISTSGGNKYYADSVKGRFTISRDNAKNTVYLQMNSLKPEDTAVYYCNALWYRSLSYRYDYWGQGTQVTVSS | high polyreactivity

Row | Sequence | polyreactivity (PSR sort gate)
23 | QVQLVESGGGLVQAGGSLRLSCAAYGSIFSENAMGWYRQAPGKEWELVADITDGGGSTYYADSVKGRFTISRDNAKNPVYLQMNSLKPDDTAVYYCNAQIFFFAPWYYEYDYWGQCTQVTVSS | low polyreactivity
24 | QVQLVESGGGLVQAGGSLRLSCAAYGSIFVLNAMGWYRQAPGKERQLVAAITNVGSTYYADSVKGRFTISRDNAKNTVYLQMNSLKPEDTAVYYCNADPGEVLVGYDYWGQGTQVSVSS | low polyreactivity
25 | QVQLVESGGGLVQAGGSLRLSCAAYGSILRSNAMGWYRQAPGKERELVAVISNDDSTYYADSVKGRFTISRDNAKNTVYLQMNSLKPEDTAVYYCNAVYYYFFRWNPIYDSWGQGTQVTVSS | low polyreactivity
26 | QVQLVESGGGLVQAGGSLRLSCAAYGSNFTSNAMGWYRQAPGKERELVAVITIGGSTNYADSVKGRFTISRDNAKNTVYLQMNSLKPEDTAVYYCAADDDYSRILQGDQSDDYWGQGSQVTVSS | low polyreactivity
27 | QVQLVESGGGLVQAGGSLRLSCAAYGSNYSTYTMGWYRTAAGKERQLVAAITRSGGSTYYADSVKGRFTISRDNAKKTDYLQMNSLKPEDTAVFYCAARGQAYSGDRMYYWGLGTQVTVSS | high polyreactivity
28 | QVQLVESGGGLVQAGGSLRLSCAAYGSTFIAYAMGWYRQAPGKERELVAAITRGGSTNYADSVKGRFTISRDNAKNTVYLQMNRLKPEDTAVYYCAADRSWGYWGRSRYDYWGQGTQVTVSS | high polyreactivity
29 | QVQLVESGGGLVQAGGSLRLSCAAYGSTFKRNAMGCYRQAPGKEREFVAAITWSGGSTYYADSVKGRFTISRDNAKNTVYLQMNSLKPEDTAVYYCNADRFSSRHSYDYWGQGTQVTVSS | low polyreactivity
30 | QVQLVESGGGLVQAGGSLRLSCAAYGSTFPSYAMGSNRQAPGKERELVAAISWTGGTTYFADSVKGRFTISRDNAKNTVYLQMNSLKPEDTAVYYCNAKDGGGSQDQAQKRPIIRFDYWGQGSQVTVSS | high polyreactivity
31 | QVQLVESGGGLVQAGGSLRLSCAAYGSTFQRYAMGWYRQAPGKERELVAAITLSGGNTYYADSVKGRFTISRDNAKNNVYLQMNSLKPEDTAVYYCAARRYRGYDYWGQGTQVTVSS | high polyreactivity
32 | QVQLVESGGGLVQAGGSLRLSCAAYGSTFTSYAMGWYRQAPGKERELVAAISSSGTRTYYADSVKGRFTISRDNAKNTVYLQMNSLKPEDTAVYYCAKASPYSKLYYWGQGTQGTVSS | high polyreactivity
33 | QVQLVESGGGLVQAGGSLRLSCAAYGSTFWANAMGWYRQAPGKERELVAAIRGTGGSTYADSVKGRFTISRDNAKNTVYLQMNSLKPEDTAVYYCNAKGRGWTAQYDYWGQGTQVTVSS | low polyreactivity
34 | QVQLVESGGGLVQAGGSLRLSCAAYGSTLDGNAMGWYRQAPGKERELVAGLDTGGSTYYADSVKGRFTISRDNAKYTVYLQLIRLKPEDTAVYDCAATDREDYDYWGQGTQVTVSS | low polyreactivity
35 | QVQLVESGGGLVQAGGSLRLSCAAYGSTLSPYTMGWYRQAPGKERELVAAITQSGGSTYYADSVKGRFTISRDKAKYTVYLQMNSLKPEDTAVYYCNRDYNADYDWGQGTQVTVSS | high polyreactivity
36 | QVQLVESGGGLVQAGGSLRLSCAAYGYIFLRNAMGWYRQAPGKERELVAAIRRTGGSTYYADSVKGRFTISRDNAKNTVYLQMNSLKPEDTAVYYCAKRSYTGYEYWGQGTQVTVSS | low polyreactivity
37 | QVQLVESGGGLVQAGGSLRLSCAAYRFIFATNTMGCYRQAPGKETELVAASSTYYADSVNGRFTISRDNAKNTVYLQMNSLKPEDNAVYYCNADRDSYIGFVDWAGEYWGQGTQVTVSS | low polyreactivity
38 | QVQLVESGGGLVQAGGSLRLSCAAYVFIFYVYAMGWYRQAHGKERELVAAISGGGDSTYYADSVKGRFTISRDNAKNTVYLQMNSLKPEDTAVYYCATRRYPEVVNGEYGYWGQGTQVTVSS | low polyreactivity
39 | QVQLVESGGGLVQAGGSLRLSCACSGHTFSSYAIGWYRQAPGKERELVAAISVSATRTYYADSVKGRFTISRDNEKNTVYLQMNSLKPEDTAVYYFAARPVQFTYGYWGLGTQVTVSS | high polyreactivity
40 | QVQLVESGGGLVQAGGSLRLSCADSGFIFVPYAMGWYRQAPGKERELVATITGRGDSTYYADSVKWRFTISRDNALNTVYLQMNSLKTEDTSLFYCAVDPIRLWAYDYWGQGTQVTVSS | low polyreactivity
41 | QVQLVESGGGLVQAGGSLRLSCADSGFTFRYNAIGSYRQAPGKERELVARISSTGGGTSYADSVKGRFTISRDNAKNTVYLQMNSLKPEDTAVYYCNKRSWGYGRGLPDSDYWGQGTQVTVSS | low polyreactivity
42 | QVQLVESGGGLVQAGGSLRLSCADSGGIFLSYGMGWYRQAPGKERELVAAISRNDGRTYYADSVKGRFTISRDNAKNTVYLQMNSLKPEDTAVYYCAADPEYYYYIYVYVQYDYWGQGTQVTVSS | low polyreactivity
43 | QVQLVESGGGLVQAGGSLRLSCADSGITIVWYAIGWYRQAPGKERELVAAISRGGGSTYYADSVKGRFTISRDNAKNTVYLQMNSLKPEDTAVYYCAASGGYTFDWLEFDYWGQGTQVTVSS | low polyreactivity
